Laboratory results taken from patent US20230174622A1.

Target: eEGFRt (modified EGFRt on edited T cells; variant not specified) (human)
Test: cell-based or functional assay

αEGFR-SAP immunotoxin (biotinylated Cetuximab antibody combined with streptavidin-SAP conjugate, 1:1 molar ratio)
depletion of EGFRt-expressing lymphocytes after 3 days in vitro (flow cytometry), 5 nM and 1 nM: 50% | reduction of eEGFRt+ cells after in vitro treatment (flow cytometry): 1.8 fold
